T1: hGITR.mmh (human)
T1 construct: soluble monomeric construct; also called human (h) GITR.mmh; monomeric human GITR
T1 chain: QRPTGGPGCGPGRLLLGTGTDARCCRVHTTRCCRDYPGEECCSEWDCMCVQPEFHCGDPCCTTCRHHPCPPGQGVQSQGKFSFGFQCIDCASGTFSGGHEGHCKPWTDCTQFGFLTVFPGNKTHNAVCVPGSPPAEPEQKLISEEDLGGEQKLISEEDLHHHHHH

T2: hGITR.mFc (human)
T2 construct: soluble dimeric construct with mouse Fc; also called dimeric human GITR
T2 chain: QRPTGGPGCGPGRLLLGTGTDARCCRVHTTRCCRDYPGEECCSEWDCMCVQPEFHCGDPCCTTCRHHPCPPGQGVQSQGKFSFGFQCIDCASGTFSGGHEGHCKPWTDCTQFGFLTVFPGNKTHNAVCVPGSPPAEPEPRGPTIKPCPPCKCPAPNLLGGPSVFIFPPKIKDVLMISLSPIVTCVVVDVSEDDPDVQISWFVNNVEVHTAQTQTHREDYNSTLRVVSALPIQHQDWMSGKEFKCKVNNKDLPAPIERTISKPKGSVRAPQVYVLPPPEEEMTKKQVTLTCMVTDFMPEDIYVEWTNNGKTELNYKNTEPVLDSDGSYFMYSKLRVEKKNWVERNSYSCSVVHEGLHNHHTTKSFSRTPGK

T3: mfGITR.mmh (Macaca fasicularis)
T3 construct: soluble monomeric construct; also called Macaca fasicularis (mf) GITR.mmh; cynomolgus GITR protein
T3 chain: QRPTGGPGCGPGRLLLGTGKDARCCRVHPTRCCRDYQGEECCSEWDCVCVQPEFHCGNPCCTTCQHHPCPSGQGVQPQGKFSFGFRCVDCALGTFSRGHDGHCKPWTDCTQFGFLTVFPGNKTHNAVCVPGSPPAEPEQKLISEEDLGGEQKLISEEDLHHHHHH

T4: human GITR (amino acids M1-V241, NCBI Accession #NP_004186.1) expressed on cells (human, UniProt Q9Y5U5 26-241)
T4 sequence: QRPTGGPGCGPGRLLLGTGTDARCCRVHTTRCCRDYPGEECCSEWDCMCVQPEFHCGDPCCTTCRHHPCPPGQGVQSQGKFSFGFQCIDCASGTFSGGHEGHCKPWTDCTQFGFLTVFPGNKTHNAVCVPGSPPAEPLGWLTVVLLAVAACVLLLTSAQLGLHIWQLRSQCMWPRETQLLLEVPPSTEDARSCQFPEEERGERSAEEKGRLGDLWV


Key:
[1] = target: T1, hGITR.mmh; assay: SPR 37C, mAb capture
Description: (§1) (Table 3). […] GITR proteins were injected over the sensor surface at a flow rate of 30 μL/minute. All Biacore binding studies were performed in a buffer composed of 0.01M HEPES pH 7.4, 0.15M NaCl, 3 mM EDTA, 0.05% v/v Surfactant P20 (HBS-ET running buffer). Antibody-reagent association was monitored for 4 minutes while dissociation in HBS-ET running buffer (10 mM HEPES, 150 mM NaCl, 3 mM EDTA, 0.05% (v/v) Surfactant P20, pH 7.4) was monitored for 10 minutes. Kinetic association (kₐ) and dissociation (kd) rate constants were determined by fitting the real-time sensorgrams to a 1:1 binding model using Scrubber 2.0c curve fitting software. Binding dissociation equilibrium constants (KD) and dissociative half-lives (t ½) were calculated from the kinetic rate constants as: KD [M]=kd/kₐ; and t_{1/2}(min)=(ln 2/(60*kd). Results are summarized in Table 3.

[2] = target: T2, hGITR.mFc; assay: SPR 37C, mAb capture
Description: as §1

[3] = target: T3, mfGITR.mmh; assay: SPR 37C, mAb capture
Description: as §1

[4] = target: T4, human GITR (amino acids M1-V241, NCBI …); assay: cell-based or functional assay
[5] = target: T4, human GITR (amino acids M1-V241, NCBI …); assay: cell-based or functional assay; remark: listed apart in the source
[6] = target: T4, human GITR (amino acids M1-V241, NCBI …); assay: cell-based or functional assay; remark: listed apart in the source
[7] = target: T4, human GITR (amino acids M1-V241, NCBI …); assay: cell-based or functional assay; remark: listed apart in the source
[8] = target: T4, human GITR (amino acids M1-V241, NCBI …); assay: ECL cell binding, hGITR/HEK293-D9
Description: Nonspecific binding sites were blocked with 2% BSA (w/v)+PBS for 1 h at room temperature (RT). Next, serial dilutions of anti-GITR antibodies, ranging from 1.7 pM to 100 nM, were added to cells for 1 h at RT. Plates were then washed to remove unbound antibodies (AquaMax2000 plate washer, MSD Analytical Technologies) and plate-bound antibodies were detected with a SULFO-TAG™ conjugated anti-human kappa light chain IgG antibody (Jackson Immunoresearch) for 1 h at RT.
Following washes, luminescent signals were recorded with a SECTOR Imager 6000 (MSD) instrument. Direct binding signals (relative light units, RLU) were analyzed as a function of the antibody concentration and data were fitted with a sigmoidal (four-parameter logistic) dose-response model using GraphPad Prism™ software. […] The signal detected with 100 nM antibody binding to the hGITR expressing cells versus parental cells was recorded as an indication of intensity and specificity of GITR binding.

Binder | Kd [1] | koff [1] | kon [1] | t½ [1] | Kd [2] | koff [2] | kon [2] | t½ [2] | Kd [3] | koff [3] | kon [3] | t½ [3] | % Activation, NF-kB-Luc, non-anchored [4] | % Blocking, NF-kB-Luc, non-anchored [4] | EC50, hGITR activation, NF-kB-Luc, non-anchored [4] | IC50, blocking of hGITRL stimulation, NF-kB-Luc, non-anchored [4] | fold activation, T-cell proliferation, 33 nM, FcgR anchored, donor 1 [6] | fold activation, T-cell proliferation, 33 nM, FcgR anchored, donor 2 [6] | Average Signal (RLU) at 100 nM [8] | EC50 [8] | also measured
H4H14521P (antibody, human IgG4, V domains shown, human IgG4 (H4H)) VH: EVQLVESGGGLVQPGGSLRLSCAASGFTFRVYEMNWVRQAPGKGLEWISYIGSSGFTIYYADSVKGRFTISRDNAKNSLFLQLNSLRAEDTAVYYCARGWNDGVPNYLGMDVWGQGTTVTVSS VL: DIQMTQSPSSLSASVGDRVTITCQASQDINKYLNWYQQKPGKAPKLLIYDASNLETGVPSRFSGSGSGTDFTFTISSLQPEDIARYHCQQYDKIPLTFGGGTKVEIK | 22.7 nM | 0.00784 s⁻¹ | 345000 M⁻¹ s⁻¹ | 1.5 min | 0.389 nM | 0.000479 s⁻¹ | 1.23e+06 M⁻¹ s⁻¹ | 24.1 min | 20.1 nM | 0.00334 s⁻¹ | 166000 M⁻¹ s⁻¹ | 3.5 min | 50% | 60% | 0.4 nM | 3.8 nM | 1.5 fold | 1.1 fold | 10100 RLU | 0.43 nM | fold activation, T-cell proliferation, plate-bound Ab 10.6 nM, donor 1 [5]: 1 fold; fold activation, T-cell proliferation, plate-bound Ab 10.6 nM, donor 2 [5]: 4 fold; fold activation, T-cell proliferation, plate-bound Ab 10.6 nM, donor 3 [5]: 4 fold; fold activation, T-cell proliferation, plate-bound Ab 10.6 nM, donor 4 [5]: 5 fold; fold activation, T-cell proliferation, plate-bound Ab 10.6 nM, donor 5 [5]: 4 fold; fold activation, T-cell proliferation, plate-bound Ab 10.6 nM, donor 6 [5]: 12 fold; fold activation, T-cell proliferation, plate-bound Ab 10.6 nM, donor 7 [5]: 3 fold; fold activation, T-cell proliferation, plate-bound Ab 10.6 nM, donor 8 [5]: 2 fold; fold activation, T-cell proliferation, plate-bound Ab 10.6 nM, mean [5]: 4 fold; fold activation, T-cell proliferation, 33 nM, FcgR anchored, donor 3 [6]: 1.1 fold; fold activation, T-cell proliferation, 33 nM, FcgR anchored, donor 4 [6]: 1.7 fold; fold activation, T-cell proliferation, 33 nM, FcgR anchored, donor 5 [6]: 0.9 fold; fold activation, T-cell proliferation, 33 nM, FcgR anchored, mean [6]: 1.2 fold; fold activation, T-cell proliferation, 22 nM, non-anchored, donor 1 [7]: 0.5 fold; fold activation, T-cell proliferation, 22 nM, non-anchored, donor 2 [7]: 1.2 fold; fold activation, T-cell proliferation, 22 nM, non-anchored, donor 3 [7]: 0.8 fold; fold activation, T-cell proliferation, 22 nM, non-anchored, donor 4 [7]: 1 fold; fold activation, T-cell proliferation, 22 nM, non-anchored, mean [7]: 0.9 fold
H4H14476P (antibody, human IgG4, V domains shown, human IgG4 (H4H)) VH: QVQLVESGGGVVQPGRSLRLSCAASGFTFSNYGIHWVRQPPGQGLEWVAVIWYAGSNKFYADSVKGRFTISRDNSKNSAYLQMNSLRAEDTAVYYCARAPLGYYYYGMDVWGQGTTVTVSS VL: DIQMTQSPSSLSASVGDRVTITCRASQGIRNDLGWYQQKPGKAPKRLIYDASSLESGVPSRFSGSGSGTEFTLTISSLQPEDFATYYCLQHNSYPWTFGQGTKVEIK | 31.4 nM | 0.0123 s⁻¹ | 392000 M⁻¹ s⁻¹ | 0.9 min | 0.297 nM | 0.000269 s⁻¹ | 906000 M⁻¹ s⁻¹ | 42.9 min | 55.8 nM | 0.0107 s⁻¹ | 191000 M⁻¹ s⁻¹ | 1.1 min | 10% | 90% | 1 nM | 2.6 nM | 0.6 fold | 0.2 fold | 8120 RLU | 0.57 nM | fold activation, T-cell proliferation, 33 nM, FcgR anchored, donor 3 [6]: 0.8 fold; fold activation, T-cell proliferation, 33 nM, FcgR anchored, donor 4 [6]: 0.8 fold; fold activation, T-cell proliferation, 33 nM, FcgR anchored, donor 5 [6]: 0.1 fold; fold activation, T-cell proliferation, 33 nM, FcgR anchored, mean [6]: 0.5 fold; fold activation, T-cell proliferation, 22 nM, non-anchored, donor 1 [7]: 0.7 fold; fold activation, T-cell proliferation, 22 nM, non-anchored, donor 2 [7]: 0.9 fold; fold activation, T-cell proliferation, 22 nM, non-anchored, donor 3 [7]: 0.9 fold; fold activation, T-cell proliferation, 22 nM, non-anchored, donor 4 [7]: 0.8 fold; fold activation, T-cell proliferation, 22 nM, non-anchored, mean [7]: 0.8 fold
H1H14486P (antibody, human IgG1, V domains shown, human IgG1 (H1H)) VH: QVQLVESGGGVVQPGRSLRLSCAASGFTFSNYGMHWVRQAPGKGLEWVAVIWYPGSNKFYTDSVEGRFTISRDNSKNTVYLQMDSLRAEDTAVYYCARGGALGVDYYYGMDVWGQGTTVTVSS VL: AIQMTQSPSSLSASVGDRVTLTCRASQGIRNDLGWYQQKPGKAPNFLIYSASSLQSGVPSRFSGSGSGTDFTLTISSLQPEDFATYYCLQNYNYPWTFGQGTKVEIK | 2.79 nM | 0.00123 s⁻¹ | 439000 M⁻¹ s⁻¹ | 9.4 min | 0.159 nM | 0.000153 s⁻¹ | 965000 M⁻¹ s⁻¹ | 75.5 min | 122 nM | 0.0166 s⁻¹ | 137000 M⁻¹ s⁻¹ | 0.7 min | 30% | 50% | 1.2 nM | 1.1 nM | – | – | 5830 RLU | 0.43 nM | –
H1H14493P (antibody, human IgG1, V domains shown, human IgG1 (H1H)) VH: QVQLVESGGGVVQPGRSLRLSCAASGFNFRSYGMHWVRQAPGKGLEWVAVIWYDGSNKYYADSVKGRFTISRDSSRDTLFLQMNSLRAGDTAVYYCARGGMLGRDYYYGMDVWGQGTTVTVSS VL: DIQMTQSPSSLSASVGDRVTITCRASQGIRNDLGWYQQKPGKAPKRLIYAASSLQSGVPSRFSGSGSGTEFTLTISSLQPEDFATYYCLQHNSYPNTFGQGTKLEIK | 13.4 nM | 0.0025 s⁻¹ | 186000 M⁻¹ s⁻¹ | 4.6 min | 0.365 nM | 0.000191 s⁻¹ | 524000 M⁻¹ s⁻¹ | 60.4 min | 1400 nM | 0.014 s⁻¹ | 10000 M⁻¹ s⁻¹ | 0.8 min | 25% | 90% | 1.2 nM | 0.6 nM | – | – | 7220 RLU | 0.3 nM | –
H1H14520P (antibody, human IgG1, V domains shown, human IgG1 (H1H)) VH: QVQLVESGGGVVQPGRSLRLSCAASGFTFSSFGMHWVRQAPGKGLEWVAVISYDGRNRYYADSVKGRFTISRDNSKNTLYLQMNSLSAEDTAMFYCAKDGFGNSFDYWGQGTLVTVSS VL: DVVMTQSPLSLPVTLGQPASISCRSSQSLLYSDGNTYLTWFQQRPGQSPRRLIYKVSNRDSGVPDRFSGSGSGTDFTLTISRVEAEDVGIYYCMQGTHWPWTFGQGTKVEIK | 63 nM | 0.0167 s⁻¹ | 266000 M⁻¹ s⁻¹ | 0.7 min | 0.537 nM | 0.000583 s⁻¹ | 1.09e+06 M⁻¹ s⁻¹ | 19.8 min | 85.9 nM | 0.0171 s⁻¹ | 199000 M⁻¹ s⁻¹ | 0.7 min | 10% | 80% | 1.1 nM | 0.9 nM | – | – | 6450 RLU | 0.24 nM | –
